The values that follow come from publication PMC2645956.

The target of this assay is Paracoccus denitrificans soluble cytochrome c552 fragment, wild-type (unlabeled) (Paracoccus denitrificans) (UniProt P54820).
UniProt P54820, sequence (P54820 78-176): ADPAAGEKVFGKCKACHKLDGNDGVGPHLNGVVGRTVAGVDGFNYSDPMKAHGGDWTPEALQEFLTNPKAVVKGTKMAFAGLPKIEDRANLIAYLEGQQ

In turn, “Paracoccus denitrificans soluble cytochrome c1 core fragment, wild-type (domain or fragment)” displayed a Brønsted parameter ZAZB of the ionic strength dependence of k12, stopped-flow of -4.
